Laboratory results from paper doi:10.1101/2022.05.07.491039 (bioRxiv, 2022).

T1: αE-catenin R551A (mouse, UniProt P26231 1-906, R551A)
T1 sequence: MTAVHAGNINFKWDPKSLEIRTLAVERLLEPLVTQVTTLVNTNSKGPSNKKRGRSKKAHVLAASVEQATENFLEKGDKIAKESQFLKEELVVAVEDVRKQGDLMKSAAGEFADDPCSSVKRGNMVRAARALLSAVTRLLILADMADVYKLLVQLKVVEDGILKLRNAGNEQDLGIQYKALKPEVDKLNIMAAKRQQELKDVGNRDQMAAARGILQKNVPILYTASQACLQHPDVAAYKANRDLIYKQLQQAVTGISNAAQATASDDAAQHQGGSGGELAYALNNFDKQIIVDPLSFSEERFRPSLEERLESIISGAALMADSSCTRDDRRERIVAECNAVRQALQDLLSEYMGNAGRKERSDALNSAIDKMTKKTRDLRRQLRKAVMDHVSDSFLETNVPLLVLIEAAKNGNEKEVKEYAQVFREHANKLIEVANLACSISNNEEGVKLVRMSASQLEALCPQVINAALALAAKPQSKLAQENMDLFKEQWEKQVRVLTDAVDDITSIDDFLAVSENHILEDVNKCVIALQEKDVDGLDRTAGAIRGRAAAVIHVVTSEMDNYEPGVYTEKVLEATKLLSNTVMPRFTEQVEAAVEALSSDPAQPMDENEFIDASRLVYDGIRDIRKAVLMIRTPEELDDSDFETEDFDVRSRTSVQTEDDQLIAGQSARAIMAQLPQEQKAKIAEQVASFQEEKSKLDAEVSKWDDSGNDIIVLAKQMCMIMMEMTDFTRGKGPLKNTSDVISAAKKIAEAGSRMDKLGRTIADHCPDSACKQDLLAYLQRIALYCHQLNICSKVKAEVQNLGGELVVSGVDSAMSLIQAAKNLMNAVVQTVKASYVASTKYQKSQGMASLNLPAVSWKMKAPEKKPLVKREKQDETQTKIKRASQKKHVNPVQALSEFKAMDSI

T2: full-length murine αE-catenin (mouse, UniProt P26231 1-906)
T2 sequence: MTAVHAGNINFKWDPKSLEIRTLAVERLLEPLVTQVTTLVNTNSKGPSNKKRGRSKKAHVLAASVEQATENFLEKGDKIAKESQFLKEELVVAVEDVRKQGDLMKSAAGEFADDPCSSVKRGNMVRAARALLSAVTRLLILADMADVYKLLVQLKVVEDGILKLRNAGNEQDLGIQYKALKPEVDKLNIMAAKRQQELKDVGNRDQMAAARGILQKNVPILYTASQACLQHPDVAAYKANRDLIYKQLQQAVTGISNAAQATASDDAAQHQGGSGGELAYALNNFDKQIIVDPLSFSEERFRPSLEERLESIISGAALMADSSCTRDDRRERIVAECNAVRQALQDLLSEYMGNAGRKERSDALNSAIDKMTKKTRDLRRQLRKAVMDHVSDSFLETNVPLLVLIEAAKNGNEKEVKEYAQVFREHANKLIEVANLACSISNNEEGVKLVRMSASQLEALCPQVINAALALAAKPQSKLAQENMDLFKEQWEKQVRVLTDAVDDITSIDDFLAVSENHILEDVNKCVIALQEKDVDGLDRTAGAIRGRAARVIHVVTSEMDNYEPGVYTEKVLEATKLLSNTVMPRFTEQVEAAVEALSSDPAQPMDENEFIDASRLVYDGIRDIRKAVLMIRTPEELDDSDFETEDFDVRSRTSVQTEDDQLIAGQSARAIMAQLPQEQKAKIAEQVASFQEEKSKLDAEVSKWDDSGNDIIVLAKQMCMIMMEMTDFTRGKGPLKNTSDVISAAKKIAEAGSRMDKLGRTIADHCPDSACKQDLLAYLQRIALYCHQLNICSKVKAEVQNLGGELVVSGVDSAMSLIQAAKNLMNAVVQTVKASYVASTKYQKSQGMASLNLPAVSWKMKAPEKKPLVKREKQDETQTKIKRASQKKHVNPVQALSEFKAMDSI

B1: β-catenin (natural protein)
chain: MATQADLMELDMAMEPDRKAAVSHWQQQSYLDSGIHSGATTTAPSLSGKGNPEEEDVDTSQVLYEWEQGFSQSFTQEQVADIDGQYAMTRAQRVRAAMFPETLDEGMQIPSTQFDAAHPTNVQRLAEPSQMLKHAVVNLINYQDDAELATRAIPELTKLLNDEDQVVVNKAAVMVHQLSKKEASRHAIMRSPQMVSAIVRTMQNTNDVETARCTAGTLHNLSHHREGLLAIFKSGGIPALVKMLGSPVDSVLFYAITTLHNLLLHQEGAKMAVRLAGGLQKMVALLNKTNVKFLAITTDCLQILAYGNQESKLIILASGGPQALVNIMRTYTYEKLLWTTSRVLKVLSVCSSNKPAIVEAGGMQALGLHLTDPSQRLVQNCLWTLRNLSDAATKQEGMEGLLGTLVQLLGSDDINVVTCAAGILSNLTCNNYKNKMMVCQVGGIEALVRTVLRAGDREDITEPAICALRHLTSRHQEAEMAQNAVRLHYGLPVVVKLLHPPSHWPLIKATVGLIRNLALCPANHAPLREQGAIPRLVQLLVRAHQDTQRRTSMGGTQQQFVEGVRMEEIVEGCTGALHILARDVHNRIVIRGLNTIPLFVQLLYSPIENIQRVAAGVLCELAQDKEAAEAIEAEGATAPLTELLHSRNEGVATYAAAVLFRMSEDKPQDYKKRLSVELTSSLFRTEPMAWNETADLGLDIGAQGEALGYRQDDPSYRSFHSGGYGQDALGMDPMMEHEMGGHHPGADYPVDGLPDLGHAQDLMDGLPPGDSNQLAWFDTDL

How the values were obtained:
Assay in all cases: SEC
[1] = target: T1, αE-catenin R551A
[2] = target: T2, full-length murine αE-catenin
[3] = target: B1

Row | binding result [1] | binding result [2] | binding result [3] | Binder
1 | binds | – | – | chicken vinculin D1 domain (aa 1-259) (domain or fragment) MPVFHTRTIESILEPVAQQISHLVIMHEEGEVDGKAIPDLTAPVSAVQAAVSNLVRVGKETVQTTEDQILKRDMPPAFIKVENACTKLVRAAQMLQADPYSVPARDYLIDGSRGILSGTSDLLLTFDEAEVRKIIRVCKGILEYLTVAEVVETMEDLVTYTKNLGPGMTKMAKMIDERQQELTHQEHRVMLVNSMNTVKELLPVLISAMKIFVTTKNTKSQGIEEALKNRNFTVEKMSAEINEIIRVLQLTSWDEDAWA
2 | binds | binds | – | B1
3 | – | binds | – | β-catenin 78-671 (domain or fragment) QVADIDGQYAMTRAQRVRAAMFPETLDEGMQIPSTQFDAAHPTNVQRLAEPSQMLKHAVVNLINYQDDAELATRAIPELTKLLNDEDQVVVNKAAVMVHQLSKKEASRHAIMRSPQMVSAIVRTMQNTNDVETARCTAGTLHNLSHHREGLLAIFKSGGIPALVKMLGSPVDSVLFYAITTLHNLLLHQEGAKMAVRLAGGLQKMVALLNKTNVKFLAITTDCLQILAYGNQESKLIILASGGPQALVNIMRTYTYEKLLWTTSRVLKVLSVCSSNKPAIVEAGGMQALGLHLTDPSQRLVQNCLWTLRNLSDAATKQEGMEGLLGTLVQLLGSDDINVVTCAAGILSNLTCNNYKNKMMVCQVGGIEALVRTVLRAGDREDITEPAICALRHLTSRHQEAEMAQNAVRLHYGLPVVVKLLHPPSHWPLIKATVGLIRNLALCPANHAPLREQGAIPRLVQLLVRAHQDTQRRTSMGGTQQQFVEGVRMEEIVEGCTGALHILARDVHNRIVIRGLNTIPLFVQLLYSPIENIQRVAAGVLCELAQDKEAAEAIEAEGATAPLTELLHSRNEGVATYAAAVLFRMSEDKPQDYK
4 | – | – | binds | Mouse E-cadherin cytoplasmic domain (domain or fragment) not shown
